Data taken from publication PMC4216189 (Biochemistry, 2014).
One block for each binder: values may come before it.

Target: T1, Escherichia coli lipoyl synthase, hexahistidine-tagged (Escherichia coli, UniProt P60716 1-321)
T1 sequence (looked up): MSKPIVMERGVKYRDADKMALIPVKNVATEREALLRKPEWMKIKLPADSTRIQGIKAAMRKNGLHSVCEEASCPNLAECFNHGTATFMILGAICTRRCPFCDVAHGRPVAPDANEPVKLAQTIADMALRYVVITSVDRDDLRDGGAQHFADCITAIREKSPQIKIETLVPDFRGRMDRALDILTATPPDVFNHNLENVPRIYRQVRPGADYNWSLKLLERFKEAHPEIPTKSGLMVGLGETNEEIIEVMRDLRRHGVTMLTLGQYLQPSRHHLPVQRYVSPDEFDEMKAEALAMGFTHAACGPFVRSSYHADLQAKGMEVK
Experiment: co-elution on anion-exchange chromatography

- binding result: binds
B1: [8,8,8-2H3]-octanoyl-H protein of Escherichia coli (natural protein, UniProt P0A6T9 1-129, looked up)
chain: MSNVPAELKYSKEHEWLRKEADGTYTVGITEHAQELLGDMVFVDLPEVGATVSAGDDCAVAESVKAASDIYAPVSGEIVAVNDALSDSPELVNSEPYAGGWIFKIKASDESELESLLDATAYEALLEDE
modifications: N6-([8,8,8-2H3]-octanoyl)-lysine (position not given)

- binding result: binds
B2: octanoyl-H protein of Escherichia coli (unlabeled) (natural protein, UniProt P0A6T9 1-129, looked up)
chain: B1 chain
modifications: N6-octanoyl-lysine (position not given)
